Data: patent US20200289608A1 (FUJITA ACADEMY, published 2020)
Where no end group is shown, it is not given here.

Molecular target: T1, cyclic nucleotide-gated channel beta 3 (CNGB3) (human, UniProt Q9NQW8 1-809, limits assumed)
T1 construct: Endogenous protein in patient material; also called human CNGB3
T1 sequence (looked up): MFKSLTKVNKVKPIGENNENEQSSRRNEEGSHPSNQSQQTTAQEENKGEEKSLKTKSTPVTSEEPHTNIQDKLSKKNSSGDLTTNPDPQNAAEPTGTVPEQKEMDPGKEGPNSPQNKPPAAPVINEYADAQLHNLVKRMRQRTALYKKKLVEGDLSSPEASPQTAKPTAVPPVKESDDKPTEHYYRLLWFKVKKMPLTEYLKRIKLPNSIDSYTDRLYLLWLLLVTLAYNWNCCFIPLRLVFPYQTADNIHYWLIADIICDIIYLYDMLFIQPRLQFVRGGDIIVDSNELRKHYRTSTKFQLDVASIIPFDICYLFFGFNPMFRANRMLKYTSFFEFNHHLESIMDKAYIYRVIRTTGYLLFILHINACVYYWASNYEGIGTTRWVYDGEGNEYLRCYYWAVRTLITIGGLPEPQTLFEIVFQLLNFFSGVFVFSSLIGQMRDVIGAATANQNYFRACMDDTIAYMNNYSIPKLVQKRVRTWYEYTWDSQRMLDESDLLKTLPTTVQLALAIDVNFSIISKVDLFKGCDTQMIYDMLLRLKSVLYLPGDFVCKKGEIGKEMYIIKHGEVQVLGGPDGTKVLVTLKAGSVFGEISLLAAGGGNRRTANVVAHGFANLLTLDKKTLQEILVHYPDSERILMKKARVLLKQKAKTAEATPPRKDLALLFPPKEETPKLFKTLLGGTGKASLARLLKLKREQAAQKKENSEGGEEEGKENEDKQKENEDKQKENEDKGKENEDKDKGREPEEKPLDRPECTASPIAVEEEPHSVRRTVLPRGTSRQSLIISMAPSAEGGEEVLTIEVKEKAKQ
Experiment: avidin blotting: serum exosome proteins after SDS-PAGE on PVDF, probed with 1.0 ug/mL biotinylated Z13 peptide and HRP-avidin
Description: The exosome was isolated from the serum using Exosome Isolation Kit (manufactured by Fujifilm Wako Pure Chemical Industries, Ltd.) according to the manufacturer's instruction. Specifically, first, the serum was centrifuged at 1,000×g at 4° C.° for 20 minutes, and the supernatant was recovered. The collected supernatant was centrifuged at 10,000×g at 4° C. for 30 minutes, and the supernatant was transferred to a new tube. Subsequently, 1.0 mL of the supernatant was mixed with exosome capture beads with a rotator at 4° C. for 180 minutes. Subsequently, after washing the capture beads, the exosome was eluted with 100 μL of an elution buffer and stored at −20° C.
An exosome isolated from 800 μL of serum was mixed with a concentrated Laemmli buffer to prepare a measurement sample. The measurement sample was isolated by SDS-PAGE and then transferred to a PVDF membrane. The PVDF membrane was blocked in 5% BSA-containing TBST (0.1 v/v % Tween-20) at room temperature for 60 minutes. The PVDF membrane after blotting was washed and incubated overnight at 4° C.° in 1.0 μg/mL of biotinylated Z13 peptide-containing TBST. […] The CNGB3 on the membrane was detected using a CCD camera system (manufactured by ATTO) and ECL prime (manufactured by GE Healthcare). […]

B1: biotinylated Z13 peptide (peptide)
peptide: VRRADNRPG
modifications: also: biotin bound, position not given here
notes: Synthesized by GenScript; used at 1.0 ug/mL as the probe in avidin blotting, detected with HRP-avidin
- binding result: binds
